Measured values taken from patent US20240158537A1 (BRIGHT PEAK THERAPEUTICS, published 2024).

B1: LZM-009 (unmodified anti-PD-1 antibody, SEQ ID NOs: 76-77) (antibody, V domains shown)
VH: QVQLVQSGAEVKKPGASVKVSCKASGYTFTSYYMYWVRQAPGQGLEWMGGVNPSNGGTNFNEKFKSRVTITADKSTSTAYMELSSLRSEDTAVYYCARRDYRYDMGFDYWGQGTTVTVSS
VL: EIVLTQSPATLSLSPGERATISCRASKGVSTSGYSYLHWYQQKPGQAPRLLIYLASYLESGVPARFSGSGSGTDFTLTISSLEPEDFATYYCQHSRELPLTFGTGTKVEIK
notes: It was tested as a full antibody with an Fc region (K248, Eu numbering); also called parental antibody
B2: Composition C (LZM-009-IL-7 conjugate, DAR 1) (other)
VH: QVQLVQSGAEVKKPGASVKVSCKASGYTFTSYYMYWVRQAPGQGLEWMGGVNPSNGGTNFNEKFKSRVTITADKSTSTAYMELSSLRSEDTAVYYCARRDYRYDMGFDYWGQGTTVTVSS
VL: EIVLTQSPATLSLSPGERATISCRASKGVSTSGYSYLHWYQQKPGQAPRLLIYLASYLESGVPARFSGSGSGTDFTLTISSLEPEDFATYYCQHSRELPLTFGTGTKVEIK
chain: DCDIEGKDGKQYESVLXVSIDQLLDSXKEIGSNCLXNEFNFFKRHICDANKEGXFLFRAARKLRQFLKXNSTGDFXLHLLKVSEGTTILLNCTGQVKGRKPAALGEAQPTKSLXENKSLKEQKKLNDLCFLKRLLQEIKTCWNKILXGTKEH
modifications: not fully specified; Nle at 17, 27, 54, 69, 147; Hse at 36, 76, 114; N-terminal amine carries the glutaryl-PEG-azide handle of Composition AA, joined by a chemical linker to K248 of the antibody heavy chain; K248 (Eu numbering) of the Fc region, whose sequence is not given, carries a DBCO linker reacted with the azide of Composition AA (triazole); drug-antibody ratio 1
notes: Chemical conjugate; also called immunocytokine Composition C

How the values were obtained:
[1] = molecular target: T1, Biotinylated Recombinant Human PD-1 (CD279)-Fc Chimera (carrier-free), Biolegend #789406 (human, UniProt Q15116 25-167, biotinylated (site not stated)); test: ELISA (OD 450 nm): antibody coated on the plate, biotinylated human PD-1-Fc titrated, streptavidin-HRP detection; x axis 'Molecule (nM)'; EC50 table beside the plot
T1 construct: Bought reagent; also called h-PD1 Fc; Fc part of the bought chimera not given

[2] = molecular target: T1, Biotinylated Recombinant Human PD-1 …; test: ELISA (OD 450 nm): immunocytokine coated on the plate, biotinylated human PD-1-Fc titrated, streptavidin-HRP detection; x axis 'Molecule (nM)'; EC50 table beside the plot
Protocol: Each of these variant conjugates and unmodified antibodies were assayed by ELISA for their ability to bind to human PD-1 according to the following protocol.
Streptavidin-HRP was Sigma #RABHRP3. TMB solution was 3,3′,5,5′-Tetramethylbenzidine (Sigma T0440). Stop solution was Sigma #CL07STOP solution (0.5M H2SO4). Buffers were: Coating buffer was PBS. Wash buffer was PBS-0.02% Tween20. Blocking buffer was PBS-0.02% Tween20 1% BSA. Protein diluent was PBS-0.02% Tween20 0.1% BSA. STOP solution was 0.5M H2SO4. […] The ELISA plates were washed 4 times with 100 μl PBS—0.02% Tween20. and blocked with PBS—1% BSA. A serial dilution of h-PD1 Fc was prepared and plates were incubated for two hours at 37° C., with shaking (600 rpm). ELISA plates were washed and incubated with Streptavidin-HRP 30 min at RT, with shaking (600 rpm). ELISA plates were washed and incubated with ready-to-use TMB solution. Reaction was stopped and plates were read by OD450 on an Enspire plate reader.

T1 sequence (Q15116 25-167, change not shown): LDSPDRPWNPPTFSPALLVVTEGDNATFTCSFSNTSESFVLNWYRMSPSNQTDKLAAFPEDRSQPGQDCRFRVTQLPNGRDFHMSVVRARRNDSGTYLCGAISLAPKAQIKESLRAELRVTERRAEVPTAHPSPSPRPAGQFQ

Binder	EC50 [1] [nM]	EC50 [2] [nM]
B1	0.035	
B2		0.0348
